Assay results: paper PMC9606368, “Membrane mediated phase separation of the bacterial nucleoid occlusion protein Noc” (Scientific Reports, 2022)
Each block holds one binder with its values, some of them ahead of it.

Tests used:
[1] = target: T1, nucleoid occlusion protein Noc (wild type) (B. subtilis, UniProt P37524 1-283); test: recruitment to GUV membranes (confocal microscopy); 3 µM unlabelled WT Noc added to Atto488-Noc R89A and GUVs (70:30 POPC:POPG); the mutant alone at 4 µM with 1 mM CTP and 1.5 µM dsNBS does not bind the GUV; details: both partners purified
T1 construct: Nucleoid occlusion protein Noc, a ParB-like protein of B. subtilis; In the microscopy with FtsZ the legends say only 'Noc'; part of it may have been the KCK-tagged, Atto488-labelled form; also called WT Noc; wildtype Noc; source: E. coli Rosetta (DE3), purified (HisTrap, Heparin HP, Superdex-75)
T1 sequence (looked up): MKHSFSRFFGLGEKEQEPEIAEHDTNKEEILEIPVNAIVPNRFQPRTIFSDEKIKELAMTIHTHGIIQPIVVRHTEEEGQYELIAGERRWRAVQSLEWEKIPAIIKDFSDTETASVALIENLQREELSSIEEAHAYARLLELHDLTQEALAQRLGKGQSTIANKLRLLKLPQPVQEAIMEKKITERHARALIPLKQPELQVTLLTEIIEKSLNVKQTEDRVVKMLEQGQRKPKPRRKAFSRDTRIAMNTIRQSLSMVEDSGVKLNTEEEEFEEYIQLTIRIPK

[2] = target: T2, nucleoid occlusion protein Noc (wild type) (Bacillus subtilis (strain 168), UniProt P37524); test: QCM-D on SLB; FtsZ GTPase assay; non-phase-separated Noc; FtsZ is up-concentrated only in Noc condensates
T2 chain: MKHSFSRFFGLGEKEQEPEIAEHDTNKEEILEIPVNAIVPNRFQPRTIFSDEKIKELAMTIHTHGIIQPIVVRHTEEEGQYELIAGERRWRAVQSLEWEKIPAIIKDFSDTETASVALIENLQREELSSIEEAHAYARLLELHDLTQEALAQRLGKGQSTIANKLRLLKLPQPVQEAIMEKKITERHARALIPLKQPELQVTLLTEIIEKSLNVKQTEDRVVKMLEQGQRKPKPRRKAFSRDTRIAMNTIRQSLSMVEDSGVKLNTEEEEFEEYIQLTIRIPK

[3] = target: T2, nucleoid occlusion protein Noc (wild …); test: MST; non-phase-separated Noc; labelled FtsZ strongly partitions into Noc condensates once Noc phase separates

binding result [1]: binds
B1: Atto488-Noc R89A (non-CTP-binding mutant, KCK-tagged, labelled) (natural protein, B. subtilis, UniProt P37524 1-283, looked up)
chain: MKHSFSRFFGLGEKEQEPEIAEHDTNKEEILEIPVNAIVPNRFQPRTIFSDEKIKELAMTIHTHGIIQPIVVRHTEEEGQYELIAGERAWRAVQSLEWEKIPAIIKDFSDTETASVALIENLQREELSSIEEAHAYARLLELHDLTQEALAQRLGKGQSTIANKLRLLKLPQPVQEAIMEKKITERHARALIPLKQPELQVTLLTEIIEKSLNVKQTEDRVVKMLEQGQRKPKPRRKAFSRDTRIAMNTIRQSLSMVEDSGVKLNTEEEEFEEYIQLTIRIPK
modifications: Atto488 maleimide on cysteine (KCK tag)
notes: Nucleoid occlusion protein Noc of B. subtilis with R89A; Labelling efficiency of ~20% is told for KCK-tagged Noc

binding result [2]: no binding
B2: B. subtilis FtsZ (protein)
chain: MLEFETNIDGLASIKVIGVGGGGNNAVNRMIENEVQGVEYIAVNTDAQALNLSKAEVKMQIGAKLTRGLGAGANPEVGKKAAEESKEQIEEALKGADMVFVTAGMGGGTGTGAAPVIAQIAKDLGALTVGVVTRPFTFEGRKRQLQAAGGISAMKEAVDTLIVIPNDRILEIVDKNTPMLEAFREADNVLRQGVQGISDLIATPGLINLDFADVKTIMSNKGSALMGIGIATGENRAAEAAKKAISSPLLEAAIDGAQGVLMNITGGTNLSLYEVQEAADIVASASDQDVNMIFGSVINENLKDEIVVTVIATGFIEQEKDVTKPQRPSLNQSIKTHNQSVPKREPKREEPQQQNTVSRHTSQPADDTLDIPTFLRNRNKRG

binding result [3]: no binding
B3: B. subtilis FtsZ labelled with Alexa-Fluor 647 NHS ester (protein)
chain: MLEFETNIDGLASIKVIGVGGGGNNAVNRMIENEVQGVEYIAVNTDAQALNLSKAEVKMQIGAKLTRGLGAGANPEVGKKAAEESKEQIEEALKGADMVFVTAGMGGGTGTGAAPVIAQIAKDLGALTVGVVTRPFTFEGRKRQLQAAGGISAMKEAVDTLIVIPNDRILEIVDKNTPMLEAFREADNVLRQGVQGISDLIATPGLINLDFADVKTIMSNKGSALMGIGIATGENRAAEAAKKAISSPLLEAAIDGAQGVLMNITGGTNLSLYEVQEAADIVASASDQDVNMIFGSVINENLKDEIVVTVIATGFIEQEKDVTKPQRPSLNQSIKTHNQSVPKREPKREEPQQQNTVSRHTSQPADDTLDIPTFLRNRNKRG
modifications: Alexa-Fluor 647 NHS ester
